Among the data in US20240254222A1 (Bayer, published 2024) are binding result and Kd values, retold here.

For experiment [1], the target named is T1, Sema3B (R&D Systems) (Homo sapiens (Human), UniProt Q13214 25-749).
T1 sequence: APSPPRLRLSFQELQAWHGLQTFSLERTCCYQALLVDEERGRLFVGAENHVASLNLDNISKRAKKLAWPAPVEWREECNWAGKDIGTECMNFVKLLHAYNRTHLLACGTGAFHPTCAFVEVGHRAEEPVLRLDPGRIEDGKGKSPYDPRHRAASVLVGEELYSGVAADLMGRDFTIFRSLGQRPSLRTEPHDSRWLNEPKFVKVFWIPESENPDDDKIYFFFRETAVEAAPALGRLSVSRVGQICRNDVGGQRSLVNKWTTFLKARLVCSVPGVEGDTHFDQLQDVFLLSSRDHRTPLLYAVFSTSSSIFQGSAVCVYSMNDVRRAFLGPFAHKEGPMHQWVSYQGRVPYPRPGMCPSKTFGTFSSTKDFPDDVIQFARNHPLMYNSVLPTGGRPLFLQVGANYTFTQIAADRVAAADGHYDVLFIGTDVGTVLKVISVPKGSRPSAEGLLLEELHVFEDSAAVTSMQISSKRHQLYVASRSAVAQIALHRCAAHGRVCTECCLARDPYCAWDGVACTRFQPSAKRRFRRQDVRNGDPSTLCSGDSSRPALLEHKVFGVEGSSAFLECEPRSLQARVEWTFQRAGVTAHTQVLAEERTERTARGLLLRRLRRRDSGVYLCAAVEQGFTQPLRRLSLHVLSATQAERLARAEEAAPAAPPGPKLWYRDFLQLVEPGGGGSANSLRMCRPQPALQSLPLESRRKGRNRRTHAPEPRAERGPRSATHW
Put plainly: ELISA.

Experiment [2] deals with T2, Sema3C (R&D Systems) (Homo sapiens (Human), UniProt Q99985 21-751).
T2 sequence: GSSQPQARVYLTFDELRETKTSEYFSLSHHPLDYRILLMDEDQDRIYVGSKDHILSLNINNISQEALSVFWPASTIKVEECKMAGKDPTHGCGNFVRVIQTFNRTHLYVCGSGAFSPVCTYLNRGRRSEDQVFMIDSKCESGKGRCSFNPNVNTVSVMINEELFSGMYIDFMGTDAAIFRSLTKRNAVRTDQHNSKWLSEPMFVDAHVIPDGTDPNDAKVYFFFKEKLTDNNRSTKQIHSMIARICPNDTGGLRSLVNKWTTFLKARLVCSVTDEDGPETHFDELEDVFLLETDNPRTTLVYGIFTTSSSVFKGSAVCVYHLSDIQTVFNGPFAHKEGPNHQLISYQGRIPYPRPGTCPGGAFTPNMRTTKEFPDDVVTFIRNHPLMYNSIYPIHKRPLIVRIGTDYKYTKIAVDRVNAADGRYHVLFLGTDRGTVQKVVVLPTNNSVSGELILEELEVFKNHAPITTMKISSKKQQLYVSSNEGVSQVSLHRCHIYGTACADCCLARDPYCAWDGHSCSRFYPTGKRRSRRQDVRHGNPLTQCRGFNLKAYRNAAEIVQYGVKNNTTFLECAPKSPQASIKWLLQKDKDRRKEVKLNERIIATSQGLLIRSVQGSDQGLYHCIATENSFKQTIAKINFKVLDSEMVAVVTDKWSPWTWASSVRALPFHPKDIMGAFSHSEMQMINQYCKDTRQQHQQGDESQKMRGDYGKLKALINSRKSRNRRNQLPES
Kind of experiment: ELISA. A general note: An ELISA detects its analyte on a solid surface through an enzyme-linked reagent.

In experiment [3] the target is T3, Mouse Semaphorin3A-Fc (R&D Systems), TPP-13357 (mouse, UniProt O08665 21-747).
T3 construct: range 21-747; R&D Systems 5926-S3; also called mouse Sema3A-Fc
T3 sequence (looked up): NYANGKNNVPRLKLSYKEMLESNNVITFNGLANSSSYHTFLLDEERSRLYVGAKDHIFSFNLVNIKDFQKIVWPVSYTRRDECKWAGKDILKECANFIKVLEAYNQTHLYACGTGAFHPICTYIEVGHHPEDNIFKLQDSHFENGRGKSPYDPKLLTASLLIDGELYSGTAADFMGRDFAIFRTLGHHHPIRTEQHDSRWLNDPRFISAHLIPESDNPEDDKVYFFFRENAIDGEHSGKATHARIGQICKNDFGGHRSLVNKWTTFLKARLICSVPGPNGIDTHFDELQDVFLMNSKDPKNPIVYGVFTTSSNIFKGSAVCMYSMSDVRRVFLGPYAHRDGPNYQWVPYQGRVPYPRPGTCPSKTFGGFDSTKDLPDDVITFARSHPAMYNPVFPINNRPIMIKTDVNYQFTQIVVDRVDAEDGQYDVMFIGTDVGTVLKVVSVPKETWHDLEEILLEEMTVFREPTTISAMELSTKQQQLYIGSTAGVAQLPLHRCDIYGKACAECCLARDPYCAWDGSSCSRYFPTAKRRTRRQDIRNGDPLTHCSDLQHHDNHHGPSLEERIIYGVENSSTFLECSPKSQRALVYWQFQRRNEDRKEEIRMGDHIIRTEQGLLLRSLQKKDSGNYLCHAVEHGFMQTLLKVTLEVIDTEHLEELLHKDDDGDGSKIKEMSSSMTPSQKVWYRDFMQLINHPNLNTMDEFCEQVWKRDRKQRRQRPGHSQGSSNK
Put plainly: SPR, captured IgG1, Sema3A-Fc analyte. Here is the method:
To assess the binding kinetics and affinity of anti-Sema3A antibodies as well as their species cross-reactivity profile, binding assays were conducted using surface plasmon resonance (SPR). Binding assays were performed on a Biacore T200 instrument or on a Biacore 8K+ instrument (Cytiva) at 25° C. using assay buffer HBS P+, 300 mM NaCl, 0.75 mM CaCl₂, 2.5 mM MgCl₂, 1 mg/ml BSA, 0.05% NaN₃. Antibodies were captured either via anti-human Fc IgGs (“Human antibody capture kit”, Order No. BR100839, Cytiva) or in case of Fc-tagged analytes by anti-human Fab IgGs (“Human Fab capture kit”, Order No. 28958325, Cytiva) covalently amine coupled to a Series S CM5 sensor chip (Cytiva). The amine coupling was carried out according to the manufacturer's instructions using 1-ethyl-3-(3-dimethylaminopropyl) carbodiimide hydrochloride (EDC), N-hydroxysuccinimide (NHS) and ethanolamine HCl, pH 8.5 (“Amine Coupling Kit” BR-1000-50, Cytiva.). For phage display hits Fc-tagged human and mouse Sema3A was used as analytes in a concentration range from 1.56-200 nM. Human, mouse, cynomolgus, rat, dog and pig monovalent Sema3A domain were used as analytes in a concentration series from […] in multi cycle kinetics mode or in 100 nM for binding analysis only. The sensor surface was regenerated with glycine pH 2.0 after each antigen injection. Obtained sensorgrams were double referenced (subtraction of reference flow cell signal and buffer injection) and were fitted to a 1:1 Langmuir binding model to derive kinetic data using the Biacore T200 Evaluation software.

B1: TPP-15374 (antibody, human IgG1, lambda, V domains shown)
VH: EVQLLESGGGLVQPGGSLRLSCAASGFTFSSYEMNWVRQAPGKGLEWVSGISWNSGSIGYADSVKGRFTISRDNSKNTLYLQMNSLRAEDTAVYYCARSGYSSSWFDPDFDYWGQGTLVTVSS
VL: QSVLTQPPSASGTPGQRVTISCTGSSSNIGAGYDVHWYQQLPGTAPKLLIYGNSNRPSGVPDRFSGSKSGTSASLAISGLRSEDEADYYCSSYAGSNPYVVFGGGTKLTVLG
notes: human IgG1; also called IgG1, hit from panning; parental mAb
The Kd is a measure of binding affinity in units of concentration. For the molecule B1, the binding result in experiment [1] and in experiment [2] was “no binding” each time. In addition, in experiment [3], the Kd was 0.018 µM.

B2: TPP-15370 (antibody, human IgG1, lambda, V domains shown)
VH: EVQLLESGGGLVQPGGSLRLSCAASGFTFSSYGMHWVRQAPGKGLEWVSAIGTGGDTYYADSVMGRFTISRDNSKNTLYLQMNSLRAEDTAVYYCARRDDYTSRDAFDVWGQGTLVTVSS
VL: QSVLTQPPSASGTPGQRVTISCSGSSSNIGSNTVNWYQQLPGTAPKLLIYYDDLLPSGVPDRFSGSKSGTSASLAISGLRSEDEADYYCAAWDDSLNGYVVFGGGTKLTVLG
notes: as for B1
Turning to B2, the binding result in experiment [1] and in experiment [2] was “no binding” each time. In addition, in experiment [3], the affinity, expressed as Kd, was 0.0032 µM.
